Measurements: the MegaScale stability set (Tsuboyama et al. 2023)

B1: 2M8U (parent)
chain: TKAQVIEAFKVFDRDGNGYVTVDYLRKVLNELGDMMPADEIEEMIYEADPQNSGYVQYETFVGMLFL

Variants of: B1
Test: folding stability dG (cDNA display proteolysis); higher = more stable
Settings: PBS, room temperature

Folding stability dG [kJ/mol], by site and new letter:
Y19: S 12.1; E 11; F 15.3; H 12.3; C 11.5; P 7.95; V 12.7; D 9.26; I 13.5; M 13.8; G 8.18; T 13.8; K 12.8; L 13.6; N 11.5; Q 12.2; A 11.3; R 11.5; W 13.4
T21: K 14.5; W 13.5; R 15.7; G 14.7; H 17.3; N 13.6; L 14.9; C 14.3; P 14.5; D 13.2; S 15.2; A 15.3; V 12.7; M 14.2; Q 15.5; F 13.8; Y 14.2; I 12.1; E 15.3
Y24: W 13.6; G 14.5; H 17; R 16.5; T 18.5; M 16.9; N 18.8; F 14.7; Q 18.1; E 17.7; I 19; C 16.8; V 18.3; A 17.5; L 16.7; P 5.18; D 19.4; K 16; S 17.9
G18: T 9.96; A 11; K 10.6; S 10.1; Y 9.87; P 11.3; L 12.2; Q 9.61; C 12; I 10.7; W 11.2; V 10.9; E 9.96; N 9.35; F 11.1; D 9.54; M 11; R 8.64; H 9.06
V20: I 15.1; K 6.1; T 13.9; R 9.11; E 9.04; Y 7.76; L 12.1; A 11.4; P 8.8; N 11.6; W 12.4; D 11.4; H 8.3; Q 9.02; G 7.67; C 12.7; F 10.3; M 10.8; S 10.2
V28: S 9.11; Y 11.6; K 10.3; D 3.15; I 13.9; A 11; M 11.1; F 12; P 5.72; R 10.1; H 9.07; E 6.8; T 11.5; W 11.6; N 7.72; C 10.9; Q 9.4; G 9.72; L 11.3
F12: Q 13.1; E 13.2; V 12.7; L 12.9; K 10.6; I 12.7; T 10; M 13.9; N 12.8; H 13.6; R 10.4; W 13.9; Y 15.5; P 7.92; S 11.2; G 14.7
V22: K 13.8; W 13; R 15; Y 14.4; E 10.4; N 11.5; G 9.88; F 10.6; Q 12.4; L 14.6; I 14.5; M 12.6; T 13.3; H 14.6; P 9.29; A 12.4; D 7.38; C 12; S 12.7
R14: F 16.8; I 15.8; W 13.9; K 14.9; N 14; H 15.4; A 15.3; S 15; Q 14.6; T 15.9; D 14.6; Y 15.4; M 15.4; G 14; P 14.6; V 16; E 15.1; C 14.3; L 15.7
R26: T 10.8; M 14.4; F 13.8; C 12; H 13.4; S 10.1; V 13; Q 11.4; N 10.8; D 7.44; W 15.2; E 8.97; L 14.2; Y 14.8; G 8.04; P 6.47; A 10.4; K 14.1; I 13.5
G16: T 10.2; M 12.7; V 10.1; A 12.4; L 12.4; Q 13.6; C 12.2; F 11.5; K 12.7; P 8.83; Y 10.4; N 14.1; S 12.7; R 11.1; E 12.2; H 12.3; W 9.59; D 13.7; I 9.24
D13: M 10; N 7.38; T 8.61; A 8.22; F 11.1; G 7.51; R 5.04; E 8.83; L 10.9; W 11.3; H 8.17; V 9.61; Q 7.82; K 5.83; Y 9.6; P 6.23; I 10; C 13.2; S 6.59
D23: Y 16.9; K 15.2; H 16.1; W 15.3; S 14.9; L 15.2; N 14.4; F 16.9; V 14.8; T 15.3; Q 15.3; G 14.9; P 14.4; C 15.4; E 15.6; I 15.2; A 15; M 14.6; R 13.9
L29: Q 5.85; A 10.7; D 3.16; G 6.61; I 14.8; E 4.67; P 4.98; K 5.57; M 15; N 7.79; R 6.38; H 6.97; C 13.2; F 13.4
D15: M 12.7; S 11.9; A 13.1; Q 12.6; K 9.72; V 12.3; H 11.3; L 13.3; G 11.5; W 11.5; I 12.6; C 12.1; F 11.7; P 10.5; Y 12.4; T 12.4; R 7.56; N 12.4; E 14.9
N17: S 16.8; Q 13.1; R 12.7; I 13; D 14.4; M 13.2; V 13.7; A 13.1; W 12.3; Y 12.6; L 14.2; E 12.9; K 12.6; F 12.8; C 12.5; T 16.5; H 12.7; P 7.8; G 12.4
K27: F 15; T 13.6; W 14.3; N 13.1; A 14.1; Q 14.8; R 14.6; M 14.8; H 14.4; L 15.6; G 12.2; I 15.3; E 13.7; S 13.4; D 12.1; C 12.8; V 15.2; P 8.52; Y 14.4
L25: Q 8.45; P 5.22; H 4.86; M 11.3; C 12.1; S 7.2; K 9.32; W 10.6; A 13.4; G 8.02; R 9.44; Y 7.65; T 11.1; N 6.16; I 13.1; E 8.75; V 12.6; D 5.31; F 12.2
